Values of other authors, collected in PMC3176300.

Legend:
[1] = target: α-Galactosidase A (Homo sapiens) (UniProt P06280); assay: SPR
[2] = target: Sortilin (Homo sapiens) (UniProt Q99523)
[3] = target: Megalin (UniProt P98164)

UniProt Q99523, sequence (Q99523 78-755): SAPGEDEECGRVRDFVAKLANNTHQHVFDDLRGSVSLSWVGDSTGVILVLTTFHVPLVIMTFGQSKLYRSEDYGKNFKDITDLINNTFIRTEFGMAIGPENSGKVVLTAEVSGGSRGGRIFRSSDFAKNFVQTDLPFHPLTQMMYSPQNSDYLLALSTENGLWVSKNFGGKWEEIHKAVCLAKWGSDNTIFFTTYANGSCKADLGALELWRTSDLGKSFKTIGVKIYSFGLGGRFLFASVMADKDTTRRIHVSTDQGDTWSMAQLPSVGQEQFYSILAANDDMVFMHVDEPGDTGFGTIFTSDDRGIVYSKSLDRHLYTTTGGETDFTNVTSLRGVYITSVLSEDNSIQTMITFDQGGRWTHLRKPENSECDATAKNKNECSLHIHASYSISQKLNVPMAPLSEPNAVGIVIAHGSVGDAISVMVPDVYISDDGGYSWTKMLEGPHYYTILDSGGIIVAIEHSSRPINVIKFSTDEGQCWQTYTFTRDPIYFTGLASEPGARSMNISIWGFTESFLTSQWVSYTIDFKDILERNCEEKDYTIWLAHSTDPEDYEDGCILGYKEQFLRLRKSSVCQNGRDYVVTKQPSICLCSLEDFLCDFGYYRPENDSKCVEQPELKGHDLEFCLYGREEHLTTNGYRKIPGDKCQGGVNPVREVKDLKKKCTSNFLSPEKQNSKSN
UniProt P06280, sequence (P06280 32-429): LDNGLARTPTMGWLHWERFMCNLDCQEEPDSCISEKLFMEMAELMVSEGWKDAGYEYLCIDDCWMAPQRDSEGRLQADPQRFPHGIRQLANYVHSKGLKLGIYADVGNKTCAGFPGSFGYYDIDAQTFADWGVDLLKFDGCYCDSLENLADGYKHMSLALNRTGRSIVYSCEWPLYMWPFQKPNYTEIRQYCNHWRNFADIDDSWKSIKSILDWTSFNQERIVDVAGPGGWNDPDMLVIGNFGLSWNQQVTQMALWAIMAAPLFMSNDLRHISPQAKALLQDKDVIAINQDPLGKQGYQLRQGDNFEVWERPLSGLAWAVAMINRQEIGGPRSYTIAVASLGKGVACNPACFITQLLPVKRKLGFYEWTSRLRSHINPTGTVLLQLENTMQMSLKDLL

Row | Kd [1] | Kd [2] | Kd [3] | Substance
1 | 600 nM |  |  | Megalin (from UniProt P98164)
2 |  | 78 nM | 8 nM | RAP (from UniProt P30533)
